Laboratory results taken from US20170088624A1 (Janssen / Centocor, published 2017).
Substitutions are numbered along the chain they refer to.

T1: Macaca fascicularis (cyno) CD40 (cCD40) on cells (Macaca fascicularis (cynomolgus), UniProt P25942 21-277 (human entry))
T1 construct: CD40 on cyno mature DCs
T1 chain: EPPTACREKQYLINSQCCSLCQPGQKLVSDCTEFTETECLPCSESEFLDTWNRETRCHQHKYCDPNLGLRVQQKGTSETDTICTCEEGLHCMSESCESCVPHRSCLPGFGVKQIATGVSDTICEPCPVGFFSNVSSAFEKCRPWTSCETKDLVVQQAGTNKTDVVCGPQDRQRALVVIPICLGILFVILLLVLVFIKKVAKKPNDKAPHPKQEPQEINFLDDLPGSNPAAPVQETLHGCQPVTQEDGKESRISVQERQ

T2: cyno CD40 (SPR analyte) (Macaca fascicularis (cynomolgus), UniProt P25942 21-193 (human entry), limits assumed)
T2 construct: also called cCD40-ECD
T2 chain: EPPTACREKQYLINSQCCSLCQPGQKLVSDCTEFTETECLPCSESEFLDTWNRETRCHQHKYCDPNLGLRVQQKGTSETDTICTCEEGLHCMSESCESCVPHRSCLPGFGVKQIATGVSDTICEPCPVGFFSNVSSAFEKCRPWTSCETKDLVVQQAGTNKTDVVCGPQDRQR

B1: C40M67 (antibody, human IgG1, kappa, V domains shown)
VH: EVQLLESGGGLVQPGGSLRLSCAASGFTFSDYAMNWVRQAPGKGLEWVSGIKSGGSSKYYADSVKGRFTISRDNSKNTLYLQMNSLRAEDTAVYYCAKHVDFYRALDYWGQGTLVTVSS
VL: EIVLTQSPGTLSLSPGERATLSCRASQSVKNSSLAWYQQKPGQAPRLLIYTASSRATGIPDRFSGSGSGTDFTLTISRLEPEDFAVYYCQQSSAPPWTFGQGTKVEIKR
notes: Full-length IgG1/kappa; from phage display
B2: C40M59 (antibody, human IgG1, kappa, V domains shown)
VH: QVQLVQSGAEVKKPGSSVKVSCKASGGTFSSYWISWVRQAPGQGLEWMGYIIPISGTARYAQKFQGRVTITADESTSTAYMELSSLRSEDTAVYYCAREPGYSSGLSVDYFDYWGQGTLVTVSS
VL: not shown
notes: as for B1
B3: C40M12 (antibody, human IgG1, lambda, V domains shown)
VH: EVQLVESGGGLVQPGGSLRLSCAASGFTFGSYAMSWVRQAPGKGLEWVSVISDSGGRTYYADSVKGRFTISRDYSKNTLYLQMNSLRAEDTAVYYCAKEGGDYYYYGMDVWGQGTTVTVSS
VL: SYELTQPPSVSVSPGQTASIICSGDKLGDKYVCWYQQKPGQSPVVVIYHDNKRPSGIPERFSGSNSGNTATLTISGTQAMDEADYYCQVWDSSTVVFGGGTKLTVLG
notes: Full-length IgG1/lambda; from OmniRat (OMT)
B4: C40M17 (antibody, human IgG1, lambda, V domains shown)
VH: B3 VH with G30S, K43R, V50T, S52N, D53N, R57G, Y74N, Q82H, D102K, G107A
VL: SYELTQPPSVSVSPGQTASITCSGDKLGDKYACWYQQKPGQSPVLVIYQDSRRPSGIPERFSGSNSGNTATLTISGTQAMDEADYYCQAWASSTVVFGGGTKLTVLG
notes: as for B3

biological target: T3, Full length human CD40 (huCD40) on cells (human, UniProt P25942 21-277); assay: cell-based or functional assay

Binder | B cells EC50, CD23 surface expression, with cross-linker | B cells EC50, CD80 surface expression, with cross-linker | B cells EC50, CD83 surface expression, with cross-linker | B cells EC50, CD86 surface expression, with cross-linker | B cells EC50, HLA-DR surface expression, with cross-linker
B1 | 4.17 ng/mL | 3.32 ng/mL | 1.46 ng/mL | 2.26 ng/mL | 0.792 ng/mL
B2 | 1240 ng/mL | 10.6 ng/mL | 10.8 ng/mL | 15.4 ng/mL | 4.84 ng/mL
B3 | 125000 ng/mL | 6.23 ng/mL | 2.84 ng/mL | 2.28 ng/mL | 4.27 ng/mL
B4 | 1.95 ng/mL | 0.879 ng/mL | 0.838 ng/mL | 4.57 ng/mL | 1.57 ng/mL

biological target: T3, Full length human CD40 (huCD40) on cells; assay: cell-based or functional assay; remark: another data set of the same source

Binder | DC EC50, CD80 surface expression, with cross-linker | DC EC50, CD83 surface expression, with cross-linker | DC EC50, CD86 surface expression, with cross-linker | DC EC50, HLA-DR surface expression, with cross-linker
B1 | 49.9 ng/mL | 127 ng/mL | 202 ng/mL | 50.7 ng/mL
B2 | 0.342 ng/mL | 276 ng/mL | 9.79 ng/mL | 53.6 ng/mL
B3 | 0.00393 ng/mL | 332 ng/mL | 502 ng/mL | 301 ng/mL
B4 | 36 ng/mL | 306 ng/mL | 33 ng/mL | 

biological target: T3, Full length human CD40 (huCD40) on cells; assay: flow cytometry, Raji cells

Binder | EC50
B1 | 247 ng/mL
B2 | 125 ng/mL
B3 | 29.9 ng/mL
B4 | 73.9 ng/mL

Biological target: T1, Macaca fascicularis (cyno) CD40 (cCD40) …
Assay: flow cytometry, cyno mature DCs
Description: (§1) Human monocytes were isolated from either frozen/fresh PBMC using CD14 negative isolation kit per manufacturer's protocol (MACS Miltenyi). Cyno monocytes were isolated from fresh PBMC using CD14 positive isolation kit per manufacturer's protocol (MACS Miltenyi). To generate DCs, monocytes were cultured for 5 days in complete media RPMI (Invitrogen) in the presence of 100 ng/ml human GM-CSF and human IL-4 (Peprotech) and media was replenished every 2 days. On day 5, DCs were stimulated with 100 ng/ml LPS (Sigma) for 24 hours. Cells were then stained with each of the tested CD40 antibody at different concentration in flow cytometry buffer (PBS+1% FBS; BD Bioscience) in 100 μl volume for 30 minutes on ice followed with two washes with flow buffer. Cells were then stained for additional 30 minutes on ice with APC-conjugated anti human IgG (Jackson ImmunoResearch) at the recommended dilution 1:100 and washed twice with flow buffer. Cells were analyzed for percent positive and Mean Fluorescence Intensity (MFI) to determine the antibody binding using Fortessa (BD Bioscience).
(§2) The experiments were conducted using assays described above. 20 antibodies were characterized further based on their binding to human DCs, cyno DCs, Raji cells and HEK-Blue™ CD40L cells.

Binder | EC50
B1 | 327 ng/mL
B2 | 74 ng/mL
B3 | 47.4 ng/mL
B4 | 53.7 ng/mL

biological target: T3, Full length human CD40 (huCD40) on cells; assay: flow cytometry, human mature DCs
Description: as §1, §2

Binder | EC50
B1 | 766 ng/mL
B2 | 826 ng/mL
B3 | 298 ng/mL
B4 | 127 ng/mL

biological target: T3, Full length human CD40 (huCD40) on cells; assay: flow cytometry, HEK-Blue CD40L cells

Binder | EC50
B1 | 550 ng/mL
B2 | 354 ng/mL
B3 | 112 ng/mL
B4 | 75.1 ng/mL

biological target: T4, human CD40 (SPR analyte) (human, UniProt P25942 21-193); assay: SPR ProteOn XPR36, mAb captured by anti-human IgG Fc, CD40 as analyte, 25 C
T4 construct: also called huCD40-ECD
Description: (§3) Affinity measurements were performed using Surface Plasmon Resonance (SPR) using a ProteOn XPR36 system (BioRad). […] Approximately 5000 RU (response units) of mAbs were immobilized. The kinetic experiments were performed at 25° C. in running buffer (DPBS+0.01% P20+100 μg/ml BSA). To perform kinetic experiments, 200 RU of mAbs were captured followed by injections of analytes (human or cyno CD40) at 5 concentrations (in a 4-fold serial dilution). The association phase was monitored for 3 minutes at 50 μL/min, then followed by 15 minutes of buffer flow (dissociation phase). The chip surface was regenerated with two 18 second pulses of 100 mM H₃PO₄ (Sigma, Cat#7961) at 100 μL/min.
(§4) The collected data were processed using ProteOn Manager software. First, the data was corrected for background using inter-spots. Then, double reference subtraction of the data was performed by using the buffer injection for analyte injections. The kinetic analysis of the data was performed using a Langmuir 1:1 binding model. The result for each mAb was reported in the format of Ka (On-rate), Kd (Off-rate) and KD (equilibrium dissociation constant).
The parameters reported in this table were obtained from a 1:1 Langmuir binding model for all samples. Affinity, KD=kd/ka.

Binder | Kd | koff | kon
B1 | 1.91 nM | 0.00031 s⁻¹ | 163000 M⁻¹ s⁻¹
B2 | 9 nM | 0.00106 s⁻¹ | 118000 M⁻¹ s⁻¹
B3 | 0.136 nM | 0.000176 s⁻¹ | 1.3e+06 M⁻¹ s⁻¹
B4 | 0.0294 nM | 8.06e-05 s⁻¹ | 2.74e+06 M⁻¹ s⁻¹

Biological target: T2, cyno CD40 (SPR analyte)
Assay: SPR ProteOn XPR36, mAb captured by anti-human IgG Fc, cyno CD40 as analyte, 25 C
Description: as §3, §4

Binder | Kd | koff | kon
B1 | 1.85 nM | 0.000341 s⁻¹ | 184000 M⁻¹ s⁻¹
B2 | 6.92 nM | 0.000995 s⁻¹ | 144000 M⁻¹ s⁻¹
B3 | 0.243 nM | 0.000441 s⁻¹ | 1.81e+06 M⁻¹ s⁻¹
B4 | 0.0368 nM | 0.000157 s⁻¹ | 4.27e+06 M⁻¹ s⁻¹
